Laboratory results from article PMC5643311.

How the values were obtained:
Assay in all cases: co-immunoprecipitation, blot
Settings in all cases: reference: wild type, EGF; sites S303
[1] = target: RelA/p65 (UniProt Q04206)
[2] = target: RelA/p65 (UniProt Q04206); remark: listed apart in the source
[3] = target: RelA/p65 (UniProt Q04206); remark: listed apart in the source

Measured: binding against the reference

MIIP (migration and invasion inhibitory protein) (from UniProt Q5JXC2) S303A, EGF
weaker: all assays above
